Bridge positions count the residues as written; N and C are the ends. Ends that are not written are not given here.
target: T1, human IL-2Rα subunit (human, UniProt P01589 22-213, limits assumed)
T1 construct: also called CD25
T1 sequence (looked up): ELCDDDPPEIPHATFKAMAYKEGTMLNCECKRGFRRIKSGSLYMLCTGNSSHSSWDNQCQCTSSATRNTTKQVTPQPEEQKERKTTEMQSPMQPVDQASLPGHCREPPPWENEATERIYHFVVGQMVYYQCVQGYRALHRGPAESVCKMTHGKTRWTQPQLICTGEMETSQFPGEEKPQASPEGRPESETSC

Binder	IC50 [µM]
LSVCSCPPGQLYCMVE (disulfide (positions not given here); also: disulfide between two of the three Cys, which not given here) [SEQ ID NO 295]	< 100
CVVCSALGCRACVPR [SEQ ID NO 269]	< 100
HTVCCQDWGCRSCSG [SEQ ID NO 282]	< 100
VTQCFDGPGSFRCCYQ [SEQ ID NO 297]	< 100
VWDCFVRGWEAGVAAVGE [SEQ ID NO 270]	< 100
RQCNCLSPGELVNCQQ [SEQ ID NO 298]	< 100
HEICCGPPGCHSCSVT [SEQ ID NO 294]	< 100
VVHCLQSGCYSVGSG [SEQ ID NO 300]	< 100
RYCSPLIPGSALGCPR [SEQ ID NO 272]	< 100
STWCCLHPGVGECQAV [SEQ ID NO 296]	< 100
TTQSCTLRYCWLLQ (disulfide 5-10 (inferred)) [SEQ ID NO 275]	< 100
RSVCCSSYGCRACFG [SEQ ID NO 284]	< 100
RGVICNHAGCRIWYG [SEQ ID NO 274]	< 100
CLVFDQYGNYKRRC [SEQ ID NO 261]	< 100
CTLYRSAPGVWLCIF [SEQ ID NO 260]	< 100
TVCCTVQGCWPCSR [SEQ ID NO 267]	< 100
IRCRLDPPGSYKTCVF (disulfide 3-14 (inferred)) [SEQ ID NO 273]	< 100
CRVWCNQAECMCIF [SEQ ID NO 287]	< 100
AICSEDEGGELCCWH [SEQ ID NO 293]	< 100
SRCSFDVTKQECVF (disulfide 3-12 (inferred)) [SEQ ID NO 288]	< 100
CVACSSDGCSPIIC [SEQ ID NO 292]	< 100
MVSCTDLGCVVVGGG [SEQ ID NO 299]	< 100
WVACNRLSGCCRPI [SEQ ID NO 281]	< 100
WVICSAVGCRPF (disulfide 4-9 (inferred)) [SEQ ID NO 31]	< 100
WVICSALGCRPF [SEQ ID NO 35]	< 100
WVICSALGCRSM [SEQ ID NO 30]	< 100

Binder	IC50 [µM]
WVICSALGCRSI [SEQ ID NO 33]	< 100
WVICSAMGCRSI [SEQ ID NO 32]	< 100
WVICSALGCRSL [SEQ ID NO 29]	< 100
WVICSAFGCRSM [SEQ ID NO 34]	< 100
LECQPYRGPLYYCQD [SEQ ID NO 289]	< 100
QVCCTSRGCRVCAPV [SEQ ID NO 263]	< 100
MACCTPRGCRPC [SEQ ID NO 283]	< 100
CKLTCTSSTCSCVF [SEQ ID NO 285]	< 100
VCCHQTFGCYRCKQ [SEQ ID NO 268]	< 100
IVCCNMFGCHTCRN [SEQ ID NO 262]	< 100
RVCCTSDGCRGCRQ [SEQ ID NO 266]	< 100
CMLKCTNAICECIF [SEQ ID NO 286]	< 100
RVCCSMVGCRSCNL [SEQ ID NO 264]	< 100
LTCLIFKPGTHRHCPV [SEQ ID NO 271]	< 100
WWISCLRDLRCLEYF [SEQ ID NO 276]	< 100
RHACKTWYRMCIVS [SEQ ID NO 277]	< 100
WVACNRVTGSCRPI [SEQ ID NO 279]	< 100
SHGVCCTQSSCRSCR [SEQ ID NO 280]	< 100
TIKCGSSGWCWVEAG [SEQ ID NO 301]	< 100
SICCTPQLCHSCDG [SEQ ID NO 290]	< 100
TTCCTSEGCHKCITL [SEQ ID NO 291]	< 100
AVSCSRLTGRCHSL [SEQ ID NO 278]	< 100
CILNDTIQGWVCIY [SEQ ID NO 259]	< 100
RVCCTFAGCRVCHK [SEQ ID NO 265]	< 100
CRMMQGTYGWTCLF (disulfide 1-12 (inferred)) [SEQ ID NO 258]	< 100
